Assays:
[1] = target: T1, E3 (Escherichia coli, UniProt P0A9P0); test: Te0 formation, non-linear fit; assay type: biochemical; conditions: 1 mM NADPH, 1 mM beta-mercaptoethanol, pH 6, 37 °C; substrate inhibition
T1 construct: gene lpdA; His-tagged full-length, ASKA clone, HisTrap purified, ~56 kDa

[2] = target: T2, GorA (Escherichia coli, UniProt P06715); test: Te0 formation, non-linear fit; assay type: biochemical; conditions: 1 mM NADPH, 1 mM beta-mercaptoethanol, pH 9, 37 °C; substrate inhibition
T2 construct: gene gor; His-tagged full-length, ASKA clone, HisTrap purified, ~49 kDa

[3] = target: T3, TrxB (Escherichia coli, UniProt P0A9P4); test: Te0 formation, non-linear fit; assay type: biochemical; conditions: 1 mM NADPH, 1 mM beta-mercaptoethanol, pH 10, 37 °C; substrate inhibition
T3 construct: His-tagged full-length, ASKA clone, HisTrap purified, ~35 kDa

[4] = system: O=[Te](O)O; test: purified protein; assay type: biochemical, Escherichia coli; conditions: 1 mM beta-mercaptoethanol

T2 sequence (P06715 whole entry): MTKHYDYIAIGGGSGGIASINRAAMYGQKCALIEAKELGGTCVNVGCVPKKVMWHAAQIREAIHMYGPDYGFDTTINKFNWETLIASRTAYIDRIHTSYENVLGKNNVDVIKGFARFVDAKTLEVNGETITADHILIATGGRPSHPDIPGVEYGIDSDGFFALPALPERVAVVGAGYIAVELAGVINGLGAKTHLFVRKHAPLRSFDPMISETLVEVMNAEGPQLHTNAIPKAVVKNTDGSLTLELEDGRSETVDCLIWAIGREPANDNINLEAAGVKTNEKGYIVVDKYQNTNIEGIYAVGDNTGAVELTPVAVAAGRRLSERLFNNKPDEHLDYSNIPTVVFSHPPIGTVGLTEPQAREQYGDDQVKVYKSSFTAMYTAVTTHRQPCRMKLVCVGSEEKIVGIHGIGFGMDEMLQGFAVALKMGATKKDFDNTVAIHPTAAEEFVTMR
T3 sequence (P0A9P4 2-321): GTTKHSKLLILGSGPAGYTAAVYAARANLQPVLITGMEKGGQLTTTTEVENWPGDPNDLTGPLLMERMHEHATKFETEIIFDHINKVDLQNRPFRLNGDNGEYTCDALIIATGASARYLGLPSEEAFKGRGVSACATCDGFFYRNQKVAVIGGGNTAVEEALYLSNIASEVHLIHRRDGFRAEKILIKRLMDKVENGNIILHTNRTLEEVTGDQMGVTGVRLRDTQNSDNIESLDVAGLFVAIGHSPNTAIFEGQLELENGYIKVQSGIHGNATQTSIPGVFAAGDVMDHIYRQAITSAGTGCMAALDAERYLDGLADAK
T1 sequence (P0A9P0 2-474): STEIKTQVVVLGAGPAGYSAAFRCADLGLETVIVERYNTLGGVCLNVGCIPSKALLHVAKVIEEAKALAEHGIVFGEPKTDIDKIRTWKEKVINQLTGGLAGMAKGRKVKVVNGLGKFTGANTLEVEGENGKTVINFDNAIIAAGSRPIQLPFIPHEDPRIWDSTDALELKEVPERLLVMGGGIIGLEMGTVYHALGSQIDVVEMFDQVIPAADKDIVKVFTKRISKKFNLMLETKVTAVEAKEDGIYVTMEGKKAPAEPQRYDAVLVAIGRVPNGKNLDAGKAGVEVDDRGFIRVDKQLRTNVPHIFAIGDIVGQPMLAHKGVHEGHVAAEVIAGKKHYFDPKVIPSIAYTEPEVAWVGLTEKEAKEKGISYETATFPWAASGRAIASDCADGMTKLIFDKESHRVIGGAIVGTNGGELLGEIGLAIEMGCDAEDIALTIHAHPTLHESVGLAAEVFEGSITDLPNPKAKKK

## O=[Te](O)O [tellurite]
[1]
  Ki apparent: 63.01 µM
[2]
  Ki apparent: 232.7 µM
[3]
  Ki apparent: 37.13 µM

## AhpF (Escherichia coli K-12)
[4]; 1 mM NADH, pH 10, 37 °C
  Km: 819.6 µM
  Vmax: 77900 µmol/min/mg

## E3 (Escherichia coli K-12)
[4]; 1 mM NADPH, pH 6, 37 °C
  Km: 47.94 µM
  Vmax: 84.5 µmol/min/mg

## GorA (Escherichia coli K-12)
[4]; 1 mM NADPH, pH 9, 37 °C
  Km: 89.47 µM
  Vmax: 6310 µmol/min/mg

## NorW (Escherichia coli K-12)
[4]; 1 mM NADH, pH 11, 42 °C
  Km: 694.9 µM
  Vmax: 5350 µmol/min/mg

## TrxB (Escherichia coli K-12)
[4]; 1 mM NADPH, pH 10, 37 °C
  Km: 114.5 µM
  Vmax: 9590 µmol/min/mg

## YkgC (Escherichia coli K-12)
[4]; 1 mM NADH, pH 9, 37 °C
  Km: 517.1 µM
  Vmax: 2700 µmol/min/mg
